The record followed here is US5238920A, “Pulmonary surfactant protein fragments” (Abbott Laboratories, priority 1989, dated 1993).

Several values for one entry are separate records, joined by “and”; a condition that tells them apart may be missing. Identical values can stand only once. No end group written: not given here.

Common to all, as to format: physicochemical
Data set [1] is described as follows: Dynamic surface tension versus compressed surface area, modified Wilhelmy balance-Langmuir trough. The conditions noted are these: 675 ug phospholipid on trough at 445 sq. cm, peptide 0.5 mg/ml (2% of solids) in DPPC:PG:PA lipids; for Surface tension, Maximum: maximum recorded during seven complete cycles; for Surface tension, Minimum: minimum recorded during seven complete cycles. From the text:
The dynamic surface tension lowering properties of the peptide/lipid admixtures were studied using a modified Wilhelmy surface Balance (Langmuir Trough). The instrument consists of an all Teflon trough and movable Teflon ribbon (dam) barrier system which completely contains and defines a variable surface area. Surface area was varied through the use of a constant rate reversible 3-phase motor to drive the Teflon barrier. A Cahn 2000 electrobalance (Cahn Instruments, Cerittos, Calif.) with a sandblasted 1 cm platinum plate and stainless steel hangdown wire was employed to determine the surface tension at the liquid-air interface. The entire apparatus was situated in a thermostated incubator set at 45° C. Surface area-surface tension measurements were made by adding 950 ml of 0.15 M NaCl to the trough. Subphase temperature was controlled during the measurements at 36°-38° C.
For each experiment 27 ul of peptide/lipid admixture was applied in a random array of 13 (.perspectiveto.2 ul) droplets to the surface of the temperature controlled subphase and allowed to spread spontaneously for 3 minutes. (The 27 ul application corresponds to 675 ug of phospholipid). The trough surface area was then cycled from a maximum (445 sq. cm) to a minimum (178 sq. cm) surface area and black to maximum at a cycling rate of 3 cycles/min (compression ratio 2.5:1). The dynamic surface tension vs surface area was recorded for 7 complete compression-expansion cycles for each application.

A short description of data set [2]: Adsorption (surface tension lowering), modified Wilhelmy surface balance. To be noted: equilibrium adsorption after three (3) minutes spreading time; peptide 0.5 mg/ml (2% of solids). Here is the method: A procedures similar to that described by Notter, et al., Petaitric Res. 16, 515-519, (1982) was employed to determined the absorption rate in the absence of diffusion resistance. The modified Wilhelmy surface balance as described above was used. However, instead of using a Langmuir trough a round Teflon dish (5.1 cm diameter) was employed. The subphase, 70 ml of 0.15 M NaCl, was allowed to equilibrate to 37° C. in the incubator and was continuously stirred with a Teflon coated magnetic stirrer. An aliquot of the peptide/lipid fragment admixture containing 5 mg of total phospholipid was dispersed in 10 ml of 0.15 M NaCl by vortexing for 10 seconds. This dispersion was then added to the saline subphase. Surface tension lowering was monitoring using a strip chart recorder connected to the electro balance output.

The nature of data set [3]: Pulsating bubble surfactometer (PBS), surface tension at air-aqueous interface. The conditions noted are these: after 5 minutes pulsation (100 cycles), 20 cycles/minute, 37 C, 1 mg/ml phospholipid in 0.15 M NaCl; peptide 2% of phospholipids. Here is the method: The Pulsating Bubble Surfactometer (PBS). The PBS equipment (Electrtonetics, Buffalo, N.Y.) used was essentially equivalent to that described in detail by G. Enhorning, J. Appld, Physiol. 43, 198-203, (1977). Recordings were made of the pressure gradient across the wall of a small air bubble, communicating with ambient air by means of a narrow chimney stack, but otherwise entirely surrounded by a 40 ul volume of the peptide/lipid admixture. The admixture concentration employed for these studies was 1 mg/ml total phospholipid (0.02 mg/ml total peptide) and the diluent was 0.15 M naCl. Immediately prior to loading the sample chamber, the diluted samples were sonicated for 15 seconds to remove any gas nuclei.
The pressure drop across the air-water interface was measured during pulsation by a pressure transducer, and the corresponding surface tension determined through the application of Young's law and the Laplace equation. Measurements were all made at 37° C. and the bubble pulsed at 20 cycles/minute to render respectively a maximum (1.1 mm) and a minimum (0.8 mm) bubble diameter. (This compression/expansion corresponds to a 50% change in the surface area of the air-water interface).

Data set [4] in a line: Relative surface activity by dilution studies on modified Wilhelmy balance-Langmuir trough. The conditions noted are these: criterion: minimum dynamic surface tension less than 5 dynes/cm for each of seven consecutive cycles; phospholipid 25 mg/ml, 675 ug applied. Here is the method: For the purpose of this comparison "surface activity" is defined as follows: For any given peptide concentration, the admixture is required to result in a minimum dynamic surface tension of less than 5 dynes/cm for each of seven consecutive expansion/compression cycles.
The admixtures were diluted with the synthetic lipid mixture as described in Example 4, so as to maintain the lipid concentration in all cases at 25 mg/ml. For these studies a standard volume of 27 ul, corresponding to a total phospholipid mass of 675 ug, was applied to the Langmuir Trough with maximum dimensions of 445 sq. cm.

As to “SP-B(30-60): synthesized SP-B peptide fragment, position 30-60 (AVAQVCRVVPLVAGGICQCLAERYSVILLDT; ends and bridges not checked; cysteine pairing not given here; UniProt P07988 230-260, looked up, fragment)”, in data set [1], the “Surface tension, Maximum” value is listed as 52.0 dynes/cm and the “Surface tension, Minimum” value was under 1 dynes/cm. In data set [2], this molecule showed an Adsorption of 41.0 dynes/cm. For the same molecule, in data set [3], the “Minimum Surface Tension” value is listed as 16.9 ± 0.95 dyne/cm. Besides, the “Lowest Peptide (Protein) Concentration At Which Surface Active Criteria Are Met” value (“Lowest Peptide” below) in data set [4] was 250.0 ug/ml and 76.7 uM.

In the case of “SP-B(1-60): synthesized SP-B peptide fragment, position 1-60, 60 amino acids (FPIPLPYCWLCRALIKRIQAMIPKGALAVAVAQVCRVVPLVAGGICQCLAERYSVILLDT; ends and bridges not checked; cysteine pairing not given here; UniProt P07988 201-260, looked up, fragment)”, in data set [1], the “Surface tension, Maximum” value was determined as 47.5 dynes/cm and the “Surface tension, Minimum” value is under 1 dynes/cm. Moreover, the Adsorption in data set [2] came to 42.0 dynes/cm. Besides, the “Minimum Surface Tension” value in data set [3] is listed as 7.2 ± 0.26 dyne/cm. The “Lowest Peptide” value in data set [4] is 125.0 ug/ml and 18.9 uM.

As for “SP-B(27-78): synthesized SP-B peptide fragment, position 27-78, 52 amino acids (LAVAVAQVCRVVPLVAGGICQCLAERYSVILLDTLLGRMLPQLVCRLVLRCS; ends and bridges not checked; cysteine pairing not given here; UniProt P07988 227-278, looked up, fragment)”, in data set [1], the “Surface tension, Maximum” value amounted to 49.5 dynes/cm and the “Surface tension, Minimum” value is under 1 dynes/cm. Also, the Adsorption in data set [2] is 40.0 dynes/cm. Besides, the “Minimum Surface Tension” value in data set [3] is 4.7 ± 0.26 dyne/cm. The “Lowest Peptide” value in data set [4] is 30.0 ug/ml and 5.3 uM.

Regarding “SP-B(1-40): synthesized SP-B peptide fragment, position 1-40, 40 amino acids”, in data set [1], the “Surface tension, Maximum” value is given as 48.5 dynes/cm and the “Surface tension, Minimum” value is given as under 1 dynes/cm. This molecule came in with an Adsorption in data set [2] of 42.5 dynes/cm. Besides, in data set [3], the “Minimum Surface Tension” value was found to be 7.1 ± 0.41 dyne/cm. In data set [4], the “Lowest Peptide” value was 15.0 ug/ml and 3.3 uM.

Regarding “SP-B(12-60): synthesized SP-B peptide fragment, position 12-60, 49 amino acids (RALIKRIQAMIPKGALAVAVAQVCRVVPLVAGGICQCLAERYSVILLDT; ends and bridges not checked; cysteine pairing not given here; UniProt P07988 212-260, looked up, fragment)”, in data set [1], the “Surface tension, Maximum” value was 49.0 dynes/cm and the “Surface tension, Minimum” value is recorded as under 1 dynes/cm. Also, the Adsorption in data set [2] was 41.0 dynes/cm. The “Minimum Surface Tension” value in data set [3] is 10.3 ± 0.67 dyne/cm. Moreover, in data set [4], the “Lowest Peptide” value was 30.0 ug/ml and 11.4 uM.

B1: SP-B(1-78): replica of the entire 78 amino acid residue sequence of the native human SP-B protein (peptide, UniProt P07988 201-279, looked up)
Pulmonary …: FPIPLPYCWLCRALIKRIQAMIPKGALAVAVAQVCRVVPLVAGGICQCLAERYSVILLDTLLGRMLPQLVCRLVLRCSM
modifications: Pulmonary surfactant-associated protein B synthetic
B1: in data set [1], the “Surface tension, Maximum” value is on record as 44.0 dynes/cm and the “Surface tension, Minimum” value is under 1 dynes/cm. In data set [2], this molecule came in with an Adsorption of 37.5 dynes/cm. Moreover, the “Minimum Surface Tension” value in data set [3] is listed as 4.0 ± 0.72 dyne/cm. Besides, the “Lowest Peptide” value in data set [4] was 15.0 ug/ml and 1.7 uM.
